The record followed here is publication PMC4066673.

Substrate in this data set: CCCCCCCCCCCCCC(=O)SCCNC(=O)CCNC(=O)[C@H](O)C(C)(C)COP(=O)(O)OP(=O)(O)OC[C@H]1O[C@@H](n2cnc3c(N)ncnc32)[C@H](O)[C@@H]1OP(=O)(O)O
The data set is described as follows: purified protein. The settings on record: pH 7.5; 25.0 °C.

B1: hTHEM4 (Homo sapiens) (protein)
chain: SSEEVILKDCSVPNPSWNKDLRLLFDQFMKKCEDGSWKRLPSYKRTPTEWIQDFKTHFLDPKLMKEEQMSQAQLFTRSFDDGLGFEYVMFYNDIEKRMVCLFQGGPYLEGPPGFIHGGAIATMIDATVGMCAMMAGGIVMTANLNINYKRPIPLCSVVMINSQLDKVEGRKFFVSCNVQSVDEKTLYSEATSLFIKLNPAKSLT
Regarding B1, the catalytic efficiency (kcat/Km) (as a rule, the turnover number divided by the Michaelis constant) came out at 1.7e+06 M⁻¹ s⁻¹.
